36 sequences from the supplement of paper PMC10567573 can be followed below.

The nature of this data set: protein stability index of a GFP-peptide fusion (GPS, HEK-293T) (PSI 1-6); higher = more stable. To be noted: c terminus: a fixed tail appended.

± gives the standard deviation.
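Note: 24-mer peptide tiles fused after GFP, lentivirally expressed, FACS-sorted into six equal bins by GFP/DsRed ratio, decoded by Illumina sequencing, PSI is the read-weighted mean bin number.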

Turning to DDHECCERVVINISGLRFETQLKT [KCNA1], the protein stability index amounted to 2.79 ± 0.3 (treatment: DMSO) and 2.61 ± 0.25 (treatment: MLN4924 1 uM, 8 h).
Taken in the same sequence, the figures for DDMLLFDEQEKGIVTKFYQLSATG [FAN1] were 3.57 ± 0.3 and 3.46 ± 0.2.
For the sequence DDYLHKDTGETSMLKRPVLLHLHQ [STEAP1], the protein stability index runs as follows: (treatment: DMSO) 3.31 ± 0.21; (treatment: MLN4924 1 uM, 8 h) 3.17 ± 0.16.
As for DEGGFTCFFRDHSYQEEAAMELKV [MOG], the protein stability index by setting is: (treatment: DMSO) 3.57 ± 0.26; (treatment: MLN4924 1 uM, 8 h) 3.7 ± 0.34.
With DERAMELLIDFAYTSQITVEEGNV [KLHL20], the protein stability index came out at 2.54 ± 0.21 (treatment: DMSO) and 3.04 ± 0.2 (treatment: MLN4924 1 uM, 8 h).
DESVVMPESQMCRKFSRECEDQKQ [NEUROD6]: the protein stability index is, setting by setting: (treatment: DMSO) 5.46 ± 0.3; (treatment: MLN4924 1 uM, 8 h) 5.43 ± 0.24.
In the case of DGISIPELREACDYLCISFEYSTI [BTBD10], the protein stability index by setting is: (treatment: DMSO) 3.18 ± 0.93; (treatment: MLN4924 1 uM, 8 h) 2.87 ± 0.56.
With DGLPDLGHAQDLMDGLPPGDSNQL [CTNNB1], the protein stability index was 5.33 ± 0.26 (treatment: DMSO) and 5.4 ± 0.19 (treatment: MLN4924 1 uM, 8 h).
For DGVEVDDSYCDALTRPEPVHEFCA [ADAMTSL2], the protein stability index was found to be 4.57 ± 0.23 (treatment: DMSO) and 4.86 ± 0.24 (treatment: MLN4924 1 uM, 8 h).
DKFIEDYLLPDTCFRMQINHAIDI [OAS1]: the protein stability index is 2.59 ± 0.36 (treatment: DMSO) and 2.17 ± 0.44 (treatment: MLN4924 1 uM, 8 h).
DKGGRVVIFQREQESKNQVHRRGE [PPP2R2B]: the protein stability index is, setting by setting: (treatment: DMSO) 4.59 ± 0.32; (treatment: MLN4924 1 uM, 8 h) 4.95 ± 0.29.
For DKNTLKDHMRKKQHRKINPKNREY [ZNF277], in that order: 3.3 ± 0.33 and 3.28 ± 0.35.
For DKQKLKRTEIISRSWFPSAPGSAS [YJU2B], in that order: 3.56 ± 0.21 and 3.71 ± 0.12.
With DLAWMITFYVRFFLTYVPLLGLKA [FADS1], the protein stability index turned out to be 3.03 ± 0.11 (treatment: DMSO) and 3.62 ± 0.23 (treatment: MLN4924 1 uM, 8 h).
In the case of DLIDVREVMERDAKDYADSIHAIF [RAB22A], the protein stability index came out at 3.16 ± 0.042 (treatment: DMSO) and 3.23 ± 0.38 (treatment: MLN4924 1 uM, 8 h).
Turning to DLPINVFKLLAGRWPFDHNDFGVF [EDNRA], the protein stability index reads like this: (treatment: DMSO) 2.19 ± 0.7; (treatment: MLN4924 1 uM, 8 h) 2.19 ± 0.45.
With DLRADDLPGPAFESYESMELACPA [KLHDC2], the protein stability index runs as follows: (treatment: DMSO) 4.84 ± 0.11; (treatment: MLN4924 1 uM, 8 h) 4.72 ± 0.34.
For DMLIREVVEKRLCMYEHGEDTHQS [RSPH3], in that order: 3.7 ± 0.26 and 3.85 ± 0.28.
For DNAPVFTLPEYRVSVPENLPVGTQ [PCDHGA10], in that order: 4.54 ± 0.17 and 4.45 ± 0.26.
Turning to DPHSGHFVALKSVRVPNGGGGGGG [CDK4], the protein stability index was found to be 4.01 ± 0.12 (treatment: DMSO) and 3.87 ± 0.33 (treatment: MLN4924 1 uM, 8 h).
Taken in the same sequence, the figures for DQEMARDLVERALYSMECAFHPLF [TCF25] were 2.35 ± 0.34 and 2.09 ± 0.35.
For DQIEDMFEQGKWDVFSENLLADVK [STX11], in that order: 3.75 ± 0.14 and 3.76 ± 0.3.
Take DQKVIELVKKYGTKQWTLIAKHLK [MYBL2]: the protein stability index is, setting by setting: (treatment: DMSO) 2.77 ± 0.91; (treatment: MLN4924 1 uM, 8 h) 3.12 ± 0.49.
Taken in the same sequence, the figures for DQLIGQGIIVKDARLNGSVASYIL [TENT5D] were 2.3 ± 0.33 and 2.19 ± 0.45.
As to DRQYDSRGRFGELLLLLPTLQSIT [HNF4A], the protein stability index was 2.35 ± 0.47 (treatment: DMSO) and 2.17 ± 0.21 (treatment: MLN4924 1 uM, 8 h).
For DRSVQRLLATRIAVYLMTFLIVTV [TMEM175], in that order: 3.15 ± 0.3 and 3.31 ± 0.31.
Taken in the same sequence, the figures for DRVVAFMDHIRIFQEQVEKLKALH [NR2F2] were 2.28 ± 0.36 and 2.22 ± 0.36.
Taken in the same sequence, the figures for DSASLPRKPSVPWQRQMDQPQDRN [RASAL3] were 4.65 ± 0.22 and 4.78 ± 0.23.
As for DSEDFPQAAKQIKDGVTMAPAFRL [FSD1], the protein stability index was 4.24 ± 0.11 (treatment: DMSO) and 4.33 ± 0.28 (treatment: MLN4924 1 uM, 8 h).
As for DSPENGADSFESSDSLLQSWNSQS [ETS2], the protein stability index was 5.11 ± 0.16 (treatment: DMSO) and 5.14 ± 0.15 (treatment: MLN4924 1 uM, 8 h).
Taken in the same sequence, the figures for DSPENMMRHIRFLKNEVERLKKQL [CCDC6] were 4.18 ± 0.31 and 4.45 ± 0.35.
DSSLHWSSSYSPETFRQQFRQFGY [ZNF396]: the protein stability index was found to be 2.66 ± 0.31 (treatment: DMSO) and 2.56 ± 0.15 (treatment: MLN4924 1 uM, 8 h).
For DTLISQESCEKNDPLSLLDDSKFP [PCDHGA10], in that order: 5.05 ± 0.18 and 4.93 ± 0.2.
As for DYLTVKVWDLNMEARPIETYQVHD [PPP2R2C], the protein stability index came to 2.69 ± 0.34 (treatment: DMSO) and 2.86 ± 0.16 (treatment: MLN4924 1 uM, 8 h).
As to DYLYTKQLSPNLDLDPLELIALAN [RHOBTB1], the protein stability index is, setting by setting: (treatment: DMSO) 2.31 ± 0.28; (treatment: MLN4924 1 uM, 8 h) 2.3 ± 0.33.
For DYNQAEMKQRDNCKIRIQRQLEIM [STX11], in that order: 2.9 ± 0.19 and 3.15 ± 0.31.
